Test results taken from PMC8377056 (2021).

Target: Fc(A680)-VH4127 conjugate (human, UniProt P01857 = IgG part, Alexa Fluor 680 (degree of labelling 1.7); H-PEG6-VH4127-NH2 joined enzymatically by microbial transglutaminase to the C-terminus of the Myc-tagged Fc | non-natural amino acid residues (not given); …)
Experiment: SPR

B1: His-tagged recombinant mouse LDLR (receptor)
chain: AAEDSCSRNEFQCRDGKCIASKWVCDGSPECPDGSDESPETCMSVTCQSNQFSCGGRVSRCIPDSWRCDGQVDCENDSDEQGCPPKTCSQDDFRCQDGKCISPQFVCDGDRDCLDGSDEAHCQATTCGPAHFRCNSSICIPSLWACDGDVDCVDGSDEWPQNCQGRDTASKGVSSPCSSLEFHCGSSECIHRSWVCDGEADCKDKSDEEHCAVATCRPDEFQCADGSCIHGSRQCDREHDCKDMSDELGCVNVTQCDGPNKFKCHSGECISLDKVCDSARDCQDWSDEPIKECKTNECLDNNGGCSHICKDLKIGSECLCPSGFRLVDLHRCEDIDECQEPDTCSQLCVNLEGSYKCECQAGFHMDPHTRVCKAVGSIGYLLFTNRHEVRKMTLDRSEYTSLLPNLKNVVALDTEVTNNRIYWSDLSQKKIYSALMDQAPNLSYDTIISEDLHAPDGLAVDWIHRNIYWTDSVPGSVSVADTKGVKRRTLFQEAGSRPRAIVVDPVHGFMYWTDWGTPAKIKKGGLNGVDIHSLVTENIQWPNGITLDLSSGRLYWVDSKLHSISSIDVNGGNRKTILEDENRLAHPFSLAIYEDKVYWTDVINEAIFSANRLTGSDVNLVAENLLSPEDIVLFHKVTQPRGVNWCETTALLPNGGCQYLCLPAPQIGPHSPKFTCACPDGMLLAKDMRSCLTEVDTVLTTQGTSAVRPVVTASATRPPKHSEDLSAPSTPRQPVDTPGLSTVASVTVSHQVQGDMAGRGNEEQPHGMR
- koff: 0.000236 s⁻¹
